Measurements from PMC6937562.

Target: C3d (human), P01024
Test: SPR; homemade HJEM2 chip, 61 RU C3d amine-coupled; FH flowed (2 μM to 3.9 nM); Biacore T200, 25 °C, HBS-P pH 7.4; 1:1 steady-state model
Settings: remark: other sources report otherwise

Sequence of C3d (human), P01024 (P01024 1002-1303): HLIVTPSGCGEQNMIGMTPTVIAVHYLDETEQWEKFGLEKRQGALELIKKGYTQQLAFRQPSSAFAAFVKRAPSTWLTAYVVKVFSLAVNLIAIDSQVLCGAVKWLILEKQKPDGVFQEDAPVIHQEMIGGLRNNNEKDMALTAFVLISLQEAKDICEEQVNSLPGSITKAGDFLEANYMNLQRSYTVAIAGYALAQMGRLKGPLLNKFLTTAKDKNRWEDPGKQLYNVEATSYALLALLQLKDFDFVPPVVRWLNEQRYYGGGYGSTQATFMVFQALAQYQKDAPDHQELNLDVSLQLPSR

- Kd: 640 nM
B1: factor H, P08603 19-1231 (natural protein)
chain: EDCNELPPRRNTEILTGSWSDQTYPEGTQAIYKCRPGYRSLGNVIMVCRKGEWVALNPLRKCQKRPCGHPGDTPFGTFTLTGGNVFEYGVKAVYTCNEGYQLLGEINYRECDTDGWTNDIPICEVVKCLPVTAPENGKIVSSAMEPDREYHFGQAVRFVCNSGYKIEGDEEMHCSDDGFWSKEKPKCVEISCKSPDVINGSPISQKIIYKENERFQYKCNMGYEYSERGDAVCTESGWRPLPSCEEKSCDNPYIPNGDYSPLRIKHRTGDEITYQCRNGFYPATRGNTAKCTSTGWIPAPRCTLKPCDYPDIKHGGLYHENMRRPYFPVAVGKYYSYYCDEHFETPSGSYWDHIHCTQDGWSPAVPCLRKCYFPYLENGYNQNYGRKFVQGKSIDVACHPGYALPKAQTTVTCMENGWSPTPRCIRVKTCSKSSIDIENGFISESQYTYALKEKAKYQCKLGYVTADGETSGSITCGKDGWSAQPTCIKSCDIPVFMNARTKNDFTWFKLNDTLDYECHDGYESNTGSTTGSIVCGYNGWSDLPICYERECELPKIDVHLVPDRKKDQYKVGEVLKFSCKPGFTIVGPNSVQCYHFGLSPDLPICKEQVQSCGPPPELLNGNVKEKTKEEYGHSEVVEYYCNPRFLMKGPNKIQCVDGEWTTLPVCIVEESTCGDIPELEHGWAQLSSPPYYYGDSVEFNCSESFTMIGHRSITCIHGVWTQLPQCVAIDKLKKCKSSNLIILEEHLKNKKEFDHNSNIRYRCRGKEGWIHTVCINGRWDPEVNCSMAQIQLCPPPPQIPNSHNMTTTLNYRDGEKVSVLCQENYLIQEGEEITCKDGRWQSIPLCVEKIPCSQPPQIEHGTINSSRSSQESYAHGTKLSYTCEGGFRISEENETTCYMGKWSSPPQCEGLPCKSPPEISHGVVAHMSDSYQYGEEVTYKCFEGFGIDGPAIAKCLGEKWSHPPSCIKTDCLSLPSFENAIPMGEKKDVYKAGEQVTYTCATYYKMDGASNVTCINSRWTGRPTCRDTSCVNPPTVQNAYIVSRQMSKYPSGERVRYQCRSPYEMFGDEEVMCLNGNWTEPPQCKDSTGKCGPPPPIDNGDITSFPLSVYAPASSVEYQCQNLYQLEGNKRITCRNGQWSEPPKCLHPCVISREIMENYNIALRWTAKQKLYSRTGESVEFVCKRGYRLSSRSHTLRTTCWDGKLEYPTCAKR
